{"source": "patent EP4644412A1", "target": "TPO receptor (TPOR)", "assay": "cell-based or functional assay"}
{"substance": "Human TPO synthetic protein (rhTPO) (from UniProt P40225 22-353) (ligand)", "values": [{"measurement": "EC50 of relative cell proliferation of BaF3/MPL cells (Cell Titer-Glo, 48 h)", "value": 1.7, "unit": "ng/mL"}]}
